Substrate in data set [1]: CC(C)=C1CC[C@@H](C)CC1=O
Kind of data set: chiral GC of menthone/isomenthone formed, Michaelis-Menten. The following applies: 10 mM NADPH with glucose-6-phosphate/G6PDH regeneration, pH 7.5, 31 °C, n-hexane overlay. It counts as biochemical, Mentha x piperita.

Substrate in data set [2]: CC(C)=C1CC[C@H](C)CC1=O
Described as above. Particulars: 10 mM NADPH with glucose-6-phosphate/G6PDH regeneration, pH 7.5, 31 °C, n-hexane overlay. The format is biochemical, Mentha x piperita.

B1: MpPR (Mentha x piperita) (protein)
chain: MVMNKQIVLNNYINGSLKQSDLALRTSTICMEIPDGCNGAILVKNLYLSVNPYLILRMGKLDIPQFDSILPGSTIVSYGVSKVLDSTHPSYEKGELIWGSQAGWEEYTLIQNPYNLFKIQDKDVPLSYYVGILGMPGMTAYAGFFEICSPKKGETVFVTAAAGSVGQLVGQFAKMFGCYVVGSAGSKEKVDLLKNKFGFDDAFNYKEESDYDTALKRHFPEGIDIYFDNVGGKMLEAVINNMRVHGRIAVCGMVSQYSLKQPEGVHNLLKLIPKQIRMQGFVVVDYYHLYPKFLEMVLPRIKEGKVTYVEDISEGLESAPSALLGVYVGRNVGNQVVAVSRE
notes: pET28a His-tag fusion, E. coli BL21(DE3), Ni-NTA and gel filtration; homodimer; EC 1.3.1.81
One may read the Km as the concentration of substrate that gives half-maximal velocity. Regarding B1, the Km is 3.00 µM in data set [1] and 8.63 µM in data set [2]. Further, the kcat in data set [1] was 863.66 10^-4 s^-1; in data set [2] it was 1595.06 10^-4 s^-1.

Source of the values: paper PMC8670242, “Functional Characterization and Structural Insights Into Stereoselectivity of Pulegone Reductase in Menthol Biosynthesis” (Frontiers in Plant Science, 2021).
